Here are results for 46 sequences from the supplement of paper PMC11780869.

The test system of the data set is Bacillus subtilis. As to the kind of experiment: cleaved RNA product abundance (RNA/gDNA barcode ratio) relative to median wild-type variant (ratio to wild type); higher = more accumulation of the downstream cleavage product. The following applies: experiment (reporter, strain, medium): exp 8a: truncated aprE reporter, strain BJT201 with 2% xylose (RNase J1 expressed); cleavage site: glnRA (positions -5 to +31 mutated). In short, it runs like this: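 In LB at 37°C, B. subtilis cultures went from OD600 0.0003 to 0.3. Their chromosomes held barcoded reporter mRNAs, truncated aprE or tetM, with RNase Y cleavage-site windows mutagenized via oligos at a 9% error rate. Cleaved RNA, chosen by gel, was reverse transcribed and barcode-sequenced alongside genomic DNA barcodes with UMI collapsing, giving a per-construct RNA:gDNA ratio scaled to the median construct with the unmutated site. This scaled ratio is termed cleaved product abundance.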
Regarding “CGACATGTCCCGCTTCTTTCATTAATCCGTTAGCAACTGTTATGATATATACATTTACCTTTTAAGAGGAGGAAT”, the “cleaved RNA product abundance” value was 0.387. As for “CGACATGTCCCGCTTCTTTCATTAATCCGTTAGCAACTGTTATGCCATATACATTTACCTTTTAAGAGGAGGAAT”, the “cleaved RNA product abundance” value amounted to 0.232.

As for “CGACATGTCCCGCTTCTTTCATTAATCCGTTAGCAACTGTTATGCTAAATACATTTACCTTTTAAGAGGAGGAAT”, the “cleaved RNA product abundance” value amounted to 0.111. In the case of “CGACATGTCCCGCTTCTTTCATTAATCCGTTAGCAACTGTTATGCTATATACAATTACCTTTTAAGAGGAGGAAT”, the “cleaved RNA product abundance” value turned out to be 1.02.

With “CGACATGTCCCGCTTCTTTCATTAATCCGTTAGCAACTGTTATGCTATATACATTTACCTTTTAAGAGGAGGAAT”, the “cleaved RNA product abundance” value was 0.695. Regarding “CGACATGTCCCGCTTCTTTCATTAATCCGTTAGCAACTGTTATGCTATATACATTTACTTTTTAAGAGGAGGAAT”, the “cleaved RNA product abundance” value was found to be 1.33. The value for “CGACATGTCCCGCTTCTTTCATTAATCCGTTAGCAACTGTTATGCTATATACATTTAGCTTTTAAGAGGAGGAAT” was 0.711; that for “CGACATGTCCCGCTTCTTTCATTAATCCGTTAGCAACTGTTATGCTATATACCTTTACCTTTTAAGAGGAGGAAT” was 0.184; that for “CGACATGTCCCGCTTCTTTCATTAATCCGTTAGCAACTGTTATGCTATATACGTTTACCTTTTAAGAGGAGGAAT” was 0.232. “CGACATGTCCCGCTTCTTTCATTAATCCGTTAGCAACTGTTATGCTATATAGATTTACCTTTTAAGAGGAGGAAT”: the “cleaved RNA product abundance” value was found to be 1.29. As for “CGACATGTCCCGCTTCTTTCATTAATCCGTTAGCAACTGTTATGGTATATACATTTACCTTTTAAGAGGAGGAAT”, the “cleaved RNA product abundance” value came out at 0.161. Consider “CGACATGTCCCGCTTCTTTCATTAATCCGTTAGCAACTGTTATGTTATATACATTTACCTTTTAAGAGGAGGAAT”, for which the “cleaved RNA product abundance” value was determined as 0.172.

“CGACATGTCCCGCTTCTTTCATTAATCCGTTAGCAACTGTTATTCTATATACATTTACCTTTTAAGAGGAGGAAT”: the “cleaved RNA product abundance” value is 0.506. “CGACATGTCCCGCTTCTTTCATTAATCCGTTAGCAACTGTTCAGCTATATACATTTACCTTTTAAGAGGAGGAAT”: the “cleaved RNA product abundance” value amounted to 0.344.

On to “CGACATGTCCCGCTTCTTTCATTAATCCGTTAGCAACTGTTCTGCAATATACATTTACCTTTTAAGAGGAGGAAT”, for which the “cleaved RNA product abundance” value was 0.103. Regarding “CGACATGTCCCGCTTCTTTCATTAATCCGTTAGCAACTGTTCTGCTATATACATGTACCTTTTAAGAGGAGGAAT”, the “cleaved RNA product abundance” value amounted to 0.386. Take “CGACATGTCCCGCTTCTTTCATTAATCCGTTAGCAACTGTTCTGCTATATACATTTACCTTTTAAGAGGAGGAAT”: the “cleaved RNA product abundance” value was 0.446.

With “CGACATGTCCCGCTTCTTTCATTAATCCGTTAGCAACTGTTCTGCTATATACATTTACTTTTTAAGAGGAGGAAT”, the “cleaved RNA product abundance” value worked out at 0.495. As to “CGACATGTCCCGCTTCTTTCATTAATCCGTTAGCAACTGTTCTGCTATATATATTTACCTTTTAAGAGGAGGAAT”, the “cleaved RNA product abundance” value was 0.554. “CGACATGTCCCGCTTCTTTCATTAATCCGTTAGCAACTGTTGTACTATATACATTTACCTTTTAAGAGGAGGAAT”: the “cleaved RNA product abundance” value is 0.713. Turning to “CGACATGTCCCGCTTCTTTCATTAATCCGTTAGCAACTGTTGTCCTATATACATTTACCTTTTAAGAGGAGGAAT”, the “cleaved RNA product abundance” value is 0.343. Consider “CGACATGTCCCGCTTCTTTCATTAATCCGTTAGCAACTGTTGTGCAATATACATTTACCTTTTAAGAGGAGGAAT”, for which the “cleaved RNA product abundance” value worked out at 0.249. For “CGACATGTCCCGCTTCTTTCATTAATCCGTTAGCAACTGTTGTGCTAAATACATTTACCTTTTAAGAGGAGGAAT”, the “cleaved RNA product abundance” value came out at 0.266. Then “CGACATGTCCCGCTTCTTTCATTAATCCGTTAGCAACTGTTGTGCTATAAACATTTACCTTTTAAGAGGAGGAAT”, with 0.453. The value for “CGACATGTCCCGCTTCTTTCATTAATCCGTTAGCAACTGTTGTGCTATATACATTTACCTTTTAAGAGGAGGAAT” was 0.516; that for “CGACATGTCCCGCTTCTTTCATTAATCCGTTAGCAACTGTTGTGCTATATATATTTACCTTTTAAGAGGAGGAAT” was 0.736. The value for “CGACATGTCCCGCTTCTTTCATTAATCCGTTAGCAACTGTTTAACTATATACATTTACCTTTTAAGAGGAGGAAT” was 0.378; that for “CGACATGTCCCGCTTCTTTCATTAATCCGTTAGCAACTGTTTAGATATATACATTTACCTTTTAAGAGGAGGAAT” was 0.297. For the sequence “CGACATGTCCCGCTTCTTTCATTAATCCGTTAGCAACTGTTTAGCAATATACATTTACCTTTTAAGAGGAGGAAT”, the “cleaved RNA product abundance” value stood at 0.455. On to “CGACATGTCCCGCTTCTTTCATTAATCCGTTAGCAACTGTTTAGCCATATACATTTACCTTTTAAGAGGAGGAAT”, for which the “cleaved RNA product abundance” value is 0.259. Regarding “CGACATGTCCCGCTTCTTTCATTAATCCGTTAGCAACTGTTTAGCTAAATACATTTACCTTTTAAGAGGAGGAAT”, the “cleaved RNA product abundance” value turned out to be 0.212. For the sequence “CGACATGTCCCGCTTCTTTCATTAATCCGTTAGCAACTGTTTAGCTATATAAATTTACCTTTTAAGAGGAGGAAT”, the “cleaved RNA product abundance” value was found to be 0.426.

On to “CGACATGTCCCGCTTCTTTCATTAATCCGTTAGCAACTGTTTAGCTATATACATATACCTTTTAAGAGGAGGAAT”, for which the “cleaved RNA product abundance” value was 0.539.

“CGACATGTCCCGCTTCTTTCATTAATCCGTTAGCAACTGTTTAGCTATATACATTAACCTTTTAAGAGGAGGAAT”: the “cleaved RNA product abundance” value was 0.618.

For the sequence “CGACATGTCCCGCTTCTTTCATTAATCCGTTAGCAACTGTTTAGCTATATACATTTAACTTTTAAGAGGAGGAAT”, the “cleaved RNA product abundance” value was determined as 0.462.

Regarding “CGACATGTCCCGCTTCTTTCATTAATCCGTTAGCAACTGTTTAGCTATATACATTTACATTTTAAGAGGAGGAAT”, the “cleaved RNA product abundance” value was determined as 0.588. In the case of “CGACATGTCCCGCTTCTTTCATTAATCCGTTAGCAACTGTTTAGCTATATACATTTACCTTTTAAGAGGAGGAAT”, the “cleaved RNA product abundance” value worked out at 0.537. On to “CGACATGTCCCGCTTCTTTCATTAATCCGTTAGCAACTGTTTAGCTATATACATTTACTTTTTAAGAGGAGGAAT”, for which the “cleaved RNA product abundance” value is 0.591. In the case of “CGACATGTCCCGCTTCTTTCATTAATCCGTTAGCAACTGTTTAGCTATATACATTTAGCTTTTAAGAGGAGGAAT”, the “cleaved RNA product abundance” value is 0.608. Consider “CGACATGTCCCGCTTCTTTCATTAATCCGTTAGCAACTGTTTAGCTATATACATTTATCTTTTAAGAGGAGGAAT”, for which the “cleaved RNA product abundance” value is 0.572. Consider “CGACATGTCCCGCTTCTTTCATTAATCCGTTAGCAACTGTTTAGCTATATACATTTGCCTTTTAAGAGGAGGAAT”, for which the “cleaved RNA product abundance” value was determined as 0.326. Consider “CGACATGTCCCGCTTCTTTCATTAATCCGTTAGCAACTGTTTAGCTATATATATTTACCTTTTAAGAGGAGGAAT”, for which the “cleaved RNA product abundance” value was 0.416.

As for “CGACATGTCCCGCTTCTTTCATTAATCCGTTAGCAACTGTTTAGCTTTATACATTTACCTTTTAAGAGGAGGAAT”, the “cleaved RNA product abundance” value came out at 0.192. For the sequence “CGACATGTCCCGCTTCTTTCATTAATCCGTTAGCAACTGTTTAGGTATATACATTTACCTTTTAAGAGGAGGAAT”, the “cleaved RNA product abundance” value was determined as 0.227. Then “CGACATGTCCCGCTTCTTTCATTAATCCGTTAGCAACTGTTTAGTTATATACATTTACCTTTTAAGAGGAGGAAT”, with 0.327.

As for “CGACATGTCCCGCTTCTTTCATTAATCCGTTAGCAACTGTTTATCTATATACATTTACCTTTTAAGAGGAGGAAT”, the “cleaved RNA product abundance” value amounted to 0.501.
